Data from the supplement of paper PMC9732359.
± gives the uncertainty stated by the source.

Test: protein stability index of a GFP-peptide fusion (yeast GPS) (PSI 1-4); higher = more stable; sorted into four equal gates, so the index is relative within each strain
Summary of the method: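 Tiled 17-residue yeast protein peptides were fused downstream of GFP in a plasmid that also expresses Cherry, and the pooled library was carried in yeast. Mid-log cultures in leucine-free medium were sorted into four equal gates by GFP/Cherry fluorescence ratio, and plasmids from each gate were PCR-amplified and Illumina-sequenced, with reads assigned to strains by barcodes. The protein stability index for each peptide was each gate's read frequency times its gate number, summed.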

Sequence | protein stability index (doa10∆) | protein stability index (pdr5∆) | protein stability index (san1∆) | protein stability index (ubr1∆)
GKEFGTTPEKPEETPLE [FAS2] | 2.77 ± 0.095 | 2.7 ± 0.076 | 2.6 ± 0.059 | 2.81 ± 0.069
MFANMKVLGVKDMSPIL [LRP1] | 1.84 ± 0.069 | 1.52 ± 0.046 | 1.41 ± 0.072 | 1.46 ± 0.047
NYDCKVISIVGGHSLEE [PRP28] | 2.93 ± 0.055 | 2.91 ± 0.059 | 2.88 ± 0.042 | 2.83 ± 0.041
SPSEFVDVAIPCNNRGK [RPS0A] | 1.74 ± 0.096 | 1.97 ± 0.065 | 1.61 ± 0.093 | 1.54 ± 0.096
PFREFLQVLIDQLDSEA [ECM29] | 3.38 ± 0.095 | 2.6 ± 0.12 | 3.08 ± 0.089 | 3.01 ± 0.065
TYDKETITDLIEQGIPK [SIR4] | 3.3 ± 0.049 | 3.39 ± 0.051 | 3.35 ± 0.04 | 3.41 ± 0.043
SMDVDDKNSGVKSEVDV [ITC1] | 2.52 ± 0.076 | 1.64 ± 0.039 | 1.78 ± 0.094 | 2.5 ± 0.043
TKQRLDAYYDLELRNSV [PRP8] | 2.64 ± 0.046 | 2.93 ± 0.039 | 2.86 ± 0.039 | 2.74 ± 0.035
FVKKTSEEIDSLNEDVE [SMC2] | 2.97 ± 0.17 | 3.2 ± 0.19 |  | 
KRKLDIGKDTFVTRKSR [PRP8] | 2.93 ± 0.079 | 3.05 ± 0.057 | 2.91 ± 0.068 | 3.24 ± 0.043
KKDIKIGTNDLFQVESA [SIR4] | 2.62 ± 0.082 | 3.22 ± 0.066 | 2.88 ± 0.07 | 2.33 ± 0.054
PMEVMGLMLGEFVDDYT [RPN11] | 3.29 ± 0.12 | 3.28 ± 0.095 | 3.12 ± 0.14 | 3.08 ± 0.074
KSIENPTQTKGNDAKPA [YLR335W/NUP2] | 3.12 ± 0.075 | 3.24 ± 0.058 | 3.23 ± 0.046 | 2.94 ± 0.055
WAEHLSDEVKRRFYKNW [RPL3] | 3.31 ± 0.2 | 2.9 ± 0.25 | 3.34 ± 0.14 | 3.37 ± 0.17
AGKWSSKYLIKQIDIPN [ECM29] | 1.55 ± 0.068 | 1.86 ± 0.088 | 2.15 ± 0.087 | 2.05 ± 0.049
SVRTAVFSALKNLISRI [ECM29] | 2.34 ± 0.049 | 2.31 ± 0.045 | 2.03 ± 0.064 | 2.53 ± 0.035
KTDFAKIINKPNELSQI [RPC82] | 3.09 ± 0.12 | 3.13 ± 0.12 | 2.84 ± 0.091 | 3.12 ± 0.14
ESPLSVAIQQGDIKPEF [YML103C/NUP188] | 2.23 ± 0.11 | 1.44 ± 0.08 | 1.95 ± 0.11 | 2.38 ± 0.075
MEQCKQRYQDLSQQQKD [YIL149C/MLP2] | 3.33 ± 0.086 | 3.3 ± 0.074 | 2.95 ± 0.067 | 2.95 ± 0.048
RRRRLKKVEEEENAATL [RPB4] | 3.17 ± 0.2 | 3.75 ± 0.26 |  | 
FDKVIYHLHPTFANPNR [TAF14] | 1.49 ± 0.091 | 1.44 ± 0.064 | 1.43 ± 0.22 | 1.19 ± 0.057
DQKPIEHIKEGSEIAIS [SWI3] | 2.93 ± 0.058 | 3.21 ± 0.069 | 2.87 ± 0.064 | 2.92 ± 0.04
KPQRTNTLRMKHGTYDK [RPB2] | 2.74 ± 0.081 | 2.85 ± 0.061 | 2.84 ± 0.062 | 2.88 ± 0.044
NIPWDVPGMPAPIKKII [PRP8] | 2.75 ± 0.3 | 2.91 ± 0.19 | 2.8 ± 0.28 | 3.05 ± 0.2
LSTSEDVSIEELLREWL [IRR1] | 3.25 ± 0.16 | 2.31 ± 0.21 |  | 1.53 ± 0.15
DKDAFIPKLKPAPINSL [SNU114] | 2.81 ± 0.069 | 2.88 ± 0.063 | 2.83 ± 0.05 | 2.84 ± 0.054
YVDFVPMYKELWINYIK [POP4] | 2.33 ± 0.065 | 2.42 ± 0.056 | 2.62 ± 0.068 | 2.7 ± 0.047

Sequence | protein stability index (doa10∆) | protein stability index (pdr5∆) | protein stability index (san1∆) | protein stability index (ubr1∆)
DSLNDDLNKENKLLRRK [YIL149C/MLP2] | 2.98 ± 0.21 | 3.24 ± 0.18 | 3.01 ± 0.15 | 3.31 ± 0.065
LSNEFTATNSKGEQIAI [ECM29] | 3.06 ± 0.11 | 3.25 ± 0.12 | 2.91 ± 0.18 | 3.26 ± 0.11
LNLDSEQTVEYMVSRAI [RPN3] | 3.32 ± 0.23 | 3.22 ± 0.3 | 2.93 ± 0.25 | 2.83 ± 0.11
NIMSASGGLFGNQQQQL [YGL172W/NUP49] | 3.25 ± 0.067 | 3.12 ± 0.086 | 3.29 ± 0.1 | 3.2 ± 0.042
FSFSKSEEERKSSPISN [YOR098C/NUP1] | 2.48 ± 0.11 | 2.23 ± 0.071 | 2.41 ± 0.091 | 2.94 ± 0.084
ALIDAGISMFDYISGIS [SKI6] | 1.48 ± 0.064 | 1.5 ± 0.046 | 2.3 ± 0.099 | 1.68 ± 0.037
NVSSNIVKNAEQHNLVK [RPS20] | 2.81 ± 0.066 | 3.17 ± 0.057 | 3.26 ± 0.046 | 3.07 ± 0.061
TTTTANINEVKKASDLV [NUT1] | 3.01 ± 0.06 | 3.07 ± 0.067 | 2.84 ± 0.067 | 2.62 ± 0.074
LTCSLYELYINKLTILG [IRR1] | 1.36 ± 0.032 | 1.36 ± 0.04 | 1.34 ± 0.059 | 1.48 ± 0.045
IVTGNLVLDLLTWLSSF [IRR1] | 2.63 ± 0.061 | 2.66 ± 0.041 | 2.05 ± 0.07 | 2.29 ± 0.039
IKHSKCRQEFLERVKAN [RPL21A] |  | 3.1 ± 0.23 |  | 
ARSGLRIGRIEDVTPVP [RPS14A] | 2.69 ± 0.11 | 2.91 ± 0.12 | 2.92 ± 0.097 | 2.85 ± 0.072
LKSPVLSKLCVPVANQF [QCR7] | 2.22 ± 0.053 | 2.45 ± 0.065 | 1.92 ± 0.053 | 2.01 ± 0.031
IYNNIVSNIEGILDEIM [RGR1] | 2.72 ± 0.08 | 2.09 ± 0.066 | 2.15 ± 0.098 | 2.46 ± 0.05
TRTIKQNNFHVLIDLLN [RGR1] | 1.75 ± 0.079 | 1.62 ± 0.13 | 1.87 ± 0.15 | 1.86 ± 0.12
YQLNDRNVTKGDIVRML [SMC3] | 2.72 ± 0.24 | 3.03 ± 0.17 | 2.84 ± 0.14 | 3.02 ± 0.11
LSIAFENGDYAACEKLL [RPN12] | 3.13 ± 0.17 | 3 ± 0.12 | 3.16 ± 0.077 | 3.24 ± 0.12
SHVENLEEKLYQMQSNY [YIL149C/MLP2] | 2.45 ± 0.051 | 2.84 ± 0.05 | 2.54 ± 0.05 | 2.86 ± 0.044
NLEFDSTNHPDYDVSKK [SRP14] | 3.15 ± 0.092 | 3.25 ± 0.12 | 3.2 ± 0.048 | 3.15 ± 0.065
PNERKAKQAKIRAGEFD [SNF2] | 3.62 ± 0.12 | 3.66 ± 0.18 | 2.99 ± 0.17 | 3.5 ± 0.14
WVNMLLISSSGPIKTPV [FAS2] | 1.87 ± 0.059 | 1.32 ± 0.051 | 1.23 ± 0.082 | 1.53 ± 0.047
EDILYYSTCPSETDLND [SRB8] | 2.29 ± 0.12 | 1.56 ± 0.099 | 2.14 ± 0.11 | 1.92 ± 0.1
EDEDEDLFGDSNKSNST [SSN2] | 2.69 ± 0.05 | 2.82 ± 0.061 | 2.86 ± 0.079 | 2.18 ± 0.032
NSIYCPTQTVAELDLMS [RPN6] | 2.55 ± 0.071 | 1.72 ± 0.071 | 1.39 ± 0.11 | 1.53 ± 0.074
LNCCGSVARVEDHDVHS [IRR1] | 1.98 ± 0.079 | 2.49 ± 0.065 | 2.41 ± 0.068 | 2.45 ± 0.06
LDGDRADKRGVLTGGYL [SMC3] | 2.93 ± 0.2 | 3.03 ± 0.23 |  | 3.07 ± 0.2
